{
  "source": "patent US20210395361A1",
  "about": "(Alector, published 2021)",
  "binders": {"B1": {"name": "S5-182 (antibody, V domains shown)", "VH": "QAYLQQSGAELVKPGASVKLSCKASGYTFTSYWLHWVKQRPGQGLEWIGMIHPNSGSTDYNERFKSKATLIVDKSSSTAYMQLSSLTSEDSAVYYCAKTFYYFDYWGQGTALTVSS", "VL": "DVVMTQSPSSMYASLGERVTITCKASQDINSYLSWFQQKPGKSPKTLIYRANRLVDGVPSRFSGSGSGQDYSLTISSLEYEDMGIYYCLQYDELYTFGGGTKLEIK", "notes": "Mouse-derived variable domains; expressed in mammalian cells as full antibody; hIgG1 isotype control"}, "B2": {"name": "S5-183 (antibody, V domains shown)", "VH": "QAYLQQSGPGLVAPSQSLSITCTVSGFSVTSYGVSWVRQPPGKGLEWLGVIWGDGSTNYHSDLISRLSISKDNSKSQVFLKLNSLQIADTATYYCARPRAFYYGSRGYWYFDVWGTGTTVAVSS", "VL": "DIVMTQSPASLSASVGETVTITCRASENIYSYLAWYQQKQGKSPQLLVYNTKTLVEGVPSRFSGSGSDTQFSLKINSLQPEDFGTYYCQHHYGPPPTFGTGTKLELK", "notes": "as for B1"}, "B3": {"name": "S5-202 (antibody, V domains shown)", "VH": "B2 VH with F27L, V29L, D62A, I87T, A88D, R97K, R99G, G107Y, A121T", "VL": "DIQMTQAHKVMSTSVGDRVSITCKASQDVSTAVAWYQQKPGQSPKLLIYSASYRYTGVPDRFTGSGSGTDFTFTISSVQAEDLAVYYCQQHYSPPPTFGGGTRREIK", "notes": "Mouse-derived variable domains; expressed in mammalian cells as full antibody; also called S5-PN202"}},
  "note": "Numbering of substitutions follows the chain as printed.",
  "data": [
    {"molecular_target": "T1, Histidine-tagged human Siglec-5 (NovoProtein) (human, UniProt O15389 17-434, limits assumed)", "T1 construct": "Bought soluble protein; also called His-tagged human Siglec-5; not shown: histidine tag", "T1 sequence": "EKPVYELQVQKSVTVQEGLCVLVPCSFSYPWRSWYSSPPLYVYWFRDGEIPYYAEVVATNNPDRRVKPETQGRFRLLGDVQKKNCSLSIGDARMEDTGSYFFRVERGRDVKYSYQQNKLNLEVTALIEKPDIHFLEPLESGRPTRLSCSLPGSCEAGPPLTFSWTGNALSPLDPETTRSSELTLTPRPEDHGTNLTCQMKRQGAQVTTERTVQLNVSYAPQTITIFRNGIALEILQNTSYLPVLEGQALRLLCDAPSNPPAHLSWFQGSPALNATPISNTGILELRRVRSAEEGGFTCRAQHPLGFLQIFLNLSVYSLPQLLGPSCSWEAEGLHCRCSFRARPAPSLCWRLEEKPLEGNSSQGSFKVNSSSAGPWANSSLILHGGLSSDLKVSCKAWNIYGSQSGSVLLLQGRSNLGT", "experiment": "array SPR, antibody immobilized, His-tagged human Siglec-5 (0-500 nM) in solution; apparent affinity", "experimental": "The apparent binding affinities of the anti-Siglec-5 antibodies were measured by array surface plasmon resonance (SPR), according to standard techniques (Abdiche, et al. (2016) MAbs 8:264-277). Briefly, anti-Siglec-5 antibodies were immobilized on a HC 30M chip at four different densities, at antibody concentration of 10 μg/mL, 2.5 μg/mL, 0.63 μg/mL, and 0.16 μg/mL. Varying concentrations (0-500 nM) of Histidine-tagged human Siglec-5 or cynomolgus Siglec-5 (NovoProtein) were then bound to the captured anti-Siglec-5 surface (5 min injection time, 15 min dissociation time) in HBS-EP⁺/1 mg/mL BSA running buffer. Kinetic analysis was performed using Carterra software to extract association and dissociation rate constants (kₐ and kd, respectively) for each antibody. Apparent affinity constants (KD) were calculated from the ratio kd/kₐ. None of the anti-Siglec-5 antibodies bound to cynomolgus Siglec-5 protein.", "units": {"Kd": "nM", "koff": "s⁻¹", "kon": "M⁻¹ s⁻¹"}, "values": [
      {"binder": "B1", "Kd": 5.3, "koff": 0.00085, "kon": 160000},
      {"binder": "B2", "Kd": 61, "koff": 0.0013, "kon": 21000},
      {"binder": "B3", "Kd": 31, "koff": 0.0011, "kon": 36000}
    ]},
    {"molecular_target": "T2, human Siglec-14 (human, UniProt Q08ET2 17-396)", "T2 construct": "also called CHO-S14; CHO-S hSiglec-14", "T2 sequence": "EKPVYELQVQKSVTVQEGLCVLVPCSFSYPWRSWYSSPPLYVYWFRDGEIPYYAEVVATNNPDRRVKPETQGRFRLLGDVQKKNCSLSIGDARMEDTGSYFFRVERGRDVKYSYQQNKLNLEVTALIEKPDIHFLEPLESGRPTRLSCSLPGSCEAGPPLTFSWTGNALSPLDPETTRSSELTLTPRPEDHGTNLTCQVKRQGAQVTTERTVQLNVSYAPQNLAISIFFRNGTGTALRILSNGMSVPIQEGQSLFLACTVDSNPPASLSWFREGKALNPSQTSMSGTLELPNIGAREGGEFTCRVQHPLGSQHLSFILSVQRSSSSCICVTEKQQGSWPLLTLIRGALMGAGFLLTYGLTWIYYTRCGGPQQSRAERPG", "experiment": "FACS, CHO cells stably transfected with human Siglec-14 (CHO-S14), fluorescent secondary antibody; y-axis Binding (Fold over background); antibody concentration not shown", "experimental": "The anti-Siglec-5 antibodies were evaluated for their ability to bind to CHO cells which were stably transfected with human Siglec-5 (CHO-S5) or human Siglec-14 (CHO-S14). The anti-Siglec-5 antibodies were also evaluated for their ability to bind to primary human neutrophils. Cells were incubated with various dilutions of the anti-Siglec-5 antibodies for 30 minutes on ice in the dark, followed by a 30-minute incubation with a fluorescently-conjugated anti-human IgG secondary antibody. Cells were washed twice in FACS buffer (PBS+2% FBS, 2 mM EDTA), and flow cytometry was performed on a BD FACS Canto. Data were analyzed using FlowJo software (Ashland, Oreg.). In the figures, “hIgG1” and “mIgG1” refer to isotype control antibodies, and “S5/14 1A5” refers to a commercially available antibody that binds both Siglec-5 and Siglec-14 (BioLegend, clone 1A5).", "values": [
      {"binder": "B1", "binding result": "no binding"},
      {"binder": "B2", "binding result": "no binding"},
      {"binder": "B3", "binding result": "no binding"}
    ]}
  ]
}
